# Measured values taken from patent publication US20100120063A1, “GPCR Arrestin Assays” (DISCOVERX CORPORATION, priority 2008, published 2010).
# Key:
# [1] = molecular target: T1, OPRM1-PK and PROKR2 (Homo sapiens, UniProt Q8NFJ6); assay: Transactivation assay, U2OS cells co-expressing OPRM1-PK and PROKR2 (FIG. 14C); format: cell-based
# T1 construct: expressed in transfected cells; host or cells: U2OS
# Method: (§1) For all assays, 10,000 cells per well were seeded in 20 μL media and incubated overnight in 1% Fetal Bovine Serum and appropriate basal media (F-12 or DMEM). For agonist assays, 5 μL compound was added to cells and incubated at Room Temp. […] Arrestin-EA complex formation with the GPCR was detected with 50% (v/v) of PathHunter Detection Reagent (Dx 93-0001, PathHunter reagents are available from DiscoveRx, Corp., Fremont, Calif.) (Lysis buffer active ingredient 2% CHAPS, Emerald II and Galacton star are from Applied Biosystems.) Data was read on Packard Victor 2 or PerkinElmer ViewLux readers and analyzed using GraphPad Prism 4.
# [2] = molecular target: T2, OPRM1-PK (Homo sapiens, UniProt P35372); assay: Arrestin-EA EFC agonist assay, U2OS cells expressing OPRM1-PK only; format: cell-based; settings: U2OS OPRM1-PK only
# T2 construct: PK (beta-galactosidase ED); expressed in transfected cells; host or cells: U2OS
# T2 sequence (P35372 whole entry): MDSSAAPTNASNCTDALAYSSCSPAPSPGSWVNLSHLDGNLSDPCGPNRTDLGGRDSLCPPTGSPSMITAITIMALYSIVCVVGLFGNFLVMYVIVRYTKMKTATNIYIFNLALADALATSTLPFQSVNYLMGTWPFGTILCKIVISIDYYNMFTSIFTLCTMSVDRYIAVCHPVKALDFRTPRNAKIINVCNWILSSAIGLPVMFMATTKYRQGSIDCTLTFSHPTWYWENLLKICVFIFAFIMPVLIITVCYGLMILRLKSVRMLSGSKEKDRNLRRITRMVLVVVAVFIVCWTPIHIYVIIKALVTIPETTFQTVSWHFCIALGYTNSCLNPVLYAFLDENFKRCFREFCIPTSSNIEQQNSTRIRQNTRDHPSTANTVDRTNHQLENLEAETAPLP
# Method: as §1
# T1 sequence (Q8NFJ6 whole entry, species assumed): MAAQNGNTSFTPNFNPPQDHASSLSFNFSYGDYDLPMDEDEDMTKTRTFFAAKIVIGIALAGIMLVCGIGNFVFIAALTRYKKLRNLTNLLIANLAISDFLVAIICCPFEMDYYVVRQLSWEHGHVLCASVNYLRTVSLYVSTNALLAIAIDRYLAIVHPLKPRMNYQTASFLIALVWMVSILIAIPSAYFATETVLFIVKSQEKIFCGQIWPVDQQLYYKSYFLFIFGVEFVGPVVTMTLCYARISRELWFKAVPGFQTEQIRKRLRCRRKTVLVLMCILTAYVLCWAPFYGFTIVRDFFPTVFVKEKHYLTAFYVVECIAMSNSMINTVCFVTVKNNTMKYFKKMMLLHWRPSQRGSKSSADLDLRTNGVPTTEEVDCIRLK
molecule,measurement,setting,value
"EG-VEGF: PROKR2 ligand, EG-VEGF/prokineticin (protein) AVITGACERDVQCGAGTCCAISLWLRGLRMCTPLGREGEECHPGSHKVPFFRKRKHHTCPCLPNLLCSRFPDGRYRCSMDLKNINF",EC50,[1]; FIG. 14C,52.2 nM
same,HILLSLOPE,[1]; FIG. 14C,1.328
same,transactivation response,[1]; OPRM1-PK and PROKR2 coexpressed,weak response
same,BOTTOM,"[1]; curve fit, signal, FIG. 14C",294.3
same,TOP,"[1]; curve fit, signal, FIG. 14C",9875
same,LOGEC50,"[1]; log of EC50, negative sign as printed, FIG. 14C",−7.282
same,EC50,[2],32.1 nM
same,HILLSLOPE,[2],1.011
same,BOTTOM,"[2]; curve fit, signal",25.82
same,TOP,"[2]; curve fit, signal",57.34
same,LOGEC50,"[2]; log of EC50, negative sign as printed",−7.493
